Target: T1, M2 protein expressed on A/PR/8/34 infected MDCK cells (influenza A virus A/PR/8/34, UniProt P06821 1-97)
T1 construct: whole, on cells
Assay: cell-based ELISA, half-saturating antibody concentration

T1 sequence (P06821 whole entry): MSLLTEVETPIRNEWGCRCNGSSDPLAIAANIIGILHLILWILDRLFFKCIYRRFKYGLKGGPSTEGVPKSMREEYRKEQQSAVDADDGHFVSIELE

Binder | Kd [nM]
human anti-M2 monoclonal antibody L66 (antibody, V domains shown) VH: EVQLVESGGGVVRPGGSLRLSCAASGFTFDDYGMSWVRQAPGKGLEWVSGINWNGGSTGYADSVKGRFTISRDNAKNSLYLQMNSLRAEDTALYYCARDRVTMVRGVIMDYYGMDVWGQGTTVTVSS VL: QTVVTQEPSLTVSPRGTVTLTCSSSTGAVTSGYYPGWFQLKPGQAPMSLIYSARKKHSWTPARFSGSLLGGKAALTLSGVQPEDEAEYYCLLYYGGAYVFGTGTKVTVLG | 0.563
human anti-M2 monoclonal antibody N547 (antibody, V domains shown) VH: not shown VL: QSVLTQPPSMSAAPGQKVTISCSGSSSNIGNNYISWYQQLPGTAPKVLIYDNNKRPSGIPDRFSGSKSGTSATLGITGLQTGDEADYYCGSWDSSLSAGVFGTGTKVTVLG | 1.05
human anti-M2 monoclonal antibody no. Z3G1 (recombinant IgG1 type Z3, CHO; ATCC PTA-5967) (antibody, V domains shown) VH: QVQLVQSGAEVKKPGASVKVSCKASGYTFTSYGISWVRQAPGQGLEWMGWISAYNGNTNYAQKLQGRVTMTTDTSTSTAYMELRSLRSDDTAVYYCARAAAGGYFQHWGQGTLVTVSS VL: not shown | 0.497
human anti-M2 monoclonal antibody C40G1 (antibody, V domains shown) VH: QLQLQESGPGLVKPSETLSLTCTVSGGSISSSFYYCGWIRQPPGKGLEWIGSIYYRGSTYYNPSLKSRVTISVDTSKNQFSLKLSSVTAADTAVYYCARRVTMVRGVKGDYFDYWGQGTLVTVSS VL: DIQMTQSPSSLSASVGDRVTITCRASQGISSWLAWYQQKPEKVPKSLIYAASSLQSGVPSRFSGSGSGTDFTLTISSLQPEDFATYYCQQYNYYPLTFGGGTKVEIKR | 0.519

Source: patent US20090196872A1 (KIRIN BEER, published 2009)
